Measurements published in the Immune Epitope Database (IEDB).

What was measured:
HLA-B*40:01 [1] = assay: IEDB peptide-MHC binding, purified MHC/competitive/radioactivity; ≥ and ≤ were set here for values at or beyond the usual limits of such assays
HLA-B*40:02 [2] = assay: as above
HLA-B*44:03 = assay: as above
HLA-B*45:01 [3] = assay: as above
HLA-B*44:02 = assay: as above
HLA-B*18:01 [4] = assay: IEDB peptide-MHC binding, purified MHC/competitive/radioactivity; filed as Kd, often an IC50 or EC50 that approximates it; ≥ and ≤ were set here for values at or beyond the usual limits of such assays; details: source organism: Hepatitis B virus
HLA-B*18:01 [5] = assay: IEDB peptide-MHC binding, purified MHC/competitive/radioactivity; ≥ and ≤ were set here for values at or beyond the usual limits of such assays
HLA-B*45:01 [6] = assay: IEDB peptide-MHC binding, purified MHC/competitive/radioactivity; filed as Kd, often an IC50 or EC50 that approximates it; ≥ and ≤ were set here for values at or beyond the usual limits of such assays
HLA-B*40:02 [7] = assay: as above; details: source organism: Plasmodium falciparum
HLA-B*40:01 [8] = assay: as above; details: source organism: Hepatitis B virus
[9] = source organism: Hepatitis C virus (isolate HCV-K3a/650)
[10] = source organism: Hepatitis B virus
[11] = source organism: Human immunodeficiency virus 1
[12] = source organism: Plasmodium falciparum

Sequence AEAALENLV has an IC50 (HLA-B*40:01 [1]; [9]) of 245 nM, an IC50 (HLA-B*40:02 [2]; [9]) of 107 nM and an IC50 (HLA-B*44:03; [9]) of 309 nM. For the same sequence, the IC50 (HLA-B*45:01 [3]; [9]) was 35 nM.

Work on AELLAACF yielded an IC50 (HLA-B*40:01 [1]; [10]) of 734 nM, an IC50 (HLA-B*40:02 [2]; [10]) of 93 nM and an IC50 (HLA-B*44:02; [10]) of 9.3 nM. The IC50 (HLA-B*44:03; [10]) was 27 nM and the IC50 (HLA-B*45:01 [3]; [10]) was 247 nM.

Work on AELLAACFA yielded an IC50 (HLA-B*40:01 [1]; [10]) of 585 nM, an IC50 (HLA-B*40:02 [2]; [10]) of 50 nM and an IC50 (HLA-B*44:02; [10]) of 332 nM. It also gave an IC50 (HLA-B*44:03; [10]) of 59 nM, an IC50 (HLA-B*45:01 [3]; [10]) of 6.6 nM and a Kd (HLA-B*18:01 [4]) of 13500 nM.

Sequence AENLWVTVY has an IC50 (HLA-B*18:01 [5]; [11]) of 51 nM, an IC50 (HLA-B*40:01 [1]; [11]) of 3370 nM and an IC50 (HLA-B*40:02 [2]; [11]) of 90 nM. It also gave an IC50 (HLA-B*44:02; [11]) of 66 nM, an IC50 (HLA-B*44:03; [11]) of 160 nM and an IC50 (HLA-B*45:01 [3]; [11]) of 68 nM.

AENLYVTVF showed an IC50 (HLA-B*40:01 [1]; [11]) of 17 nM, an IC50 (HLA-B*40:02 [2]; [11]) of 3.1 nM and an IC50 (HLA-B*44:02; [11]) of 39 nM. The IC50 (HLA-B*44:03; [11]) was 47 nM and the IC50 (HLA-B*45:01 [3]; [11]) was 69 nM.

For DEFKPIVQY, the IC50 (HLA-B*18:01 [5]; [12]) was 3.9 nM, the IC50 (HLA-B*44:02; [12]) was 12 nM and the IC50 (HLA-B*44:03; [12]) was 401 nM.

Sequence DEVDLYLLM has an IC50 (HLA-B*18:01 [5]; [12]) of 17 nM, an IC50 (HLA-B*40:01 [1]; [12]) of 2920 nM and an IC50 (HLA-B*40:02 [2]; [12]) of 1020 nM. The IC50 (HLA-B*44:02; [12]) was 107 nM and the IC50 (HLA-B*44:03; [12]) was 84 nM.

For GEIPFYGKAI, the IC50 (HLA-B*40:01 [1]; [9]) was 146 nM, the IC50 (HLA-B*40:02 [2]; [9]) was 87 nM and the IC50 (HLA-B*44:03; [9]) was 113 nM. For the same sequence, the Kd (HLA-B*45:01 [6]; [9]) was 5400 nM.

Work on IEAEVIPA yielded an IC50 (HLA-B*18:01 [5]; [11]) of 61 nM, an IC50 (HLA-B*40:01 [1]; [11]) of 5950 nM and an IC50 (HLA-B*40:02 [2]; [11]) of 62 nM. The IC50 (HLA-B*44:02; [11]) was 859 nM, the IC50 (HLA-B*44:03; [11]) was 6400 nM and the Kd (HLA-B*45:01 [6]; [11]) was 347 nM.

NELNYDNAGI showed an IC50 (HLA-B*18:01 [5]; [12]) of 4610 nM, an IC50 (HLA-B*40:01 [1]; [12]) of 4130 nM and an IC50 (HLA-B*44:02; [12]) of 105 nM. For the same sequence, the IC50 (HLA-B*44:03; [12]) was 72 nM, the IC50 (HLA-B*45:01 [3]; [12]) was 457 nM and the Kd (HLA-B*40:02 [7]) was ≥ 23600 nM.

In the case of NETPGIRYQY, the IC50 (HLA-B*18:01 [5]; [11]) is reported as 179 nM, the IC50 (HLA-B*40:01 [1]; [11]) is reported as ≥ 20000 nM and the IC50 (HLA-B*40:02 [2]; [11]) is reported as ≥ 20000 nM. It also gave an IC50 (HLA-B*44:02; [11]) of 75 nM, an IC50 (HLA-B*44:03; [11]) of 62 nM and a Kd (HLA-B*45:01 [6]; [11]) of 10600 nM.

For QEILDLWVY, the IC50 (HLA-B*18:01 [5]; [11]) was 52 nM, the IC50 (HLA-B*40:01 [1]; [11]) was 739 nM and the IC50 (HLA-B*40:02 [2]; [11]) was 4520 nM. The IC50 (HLA-B*44:02; [11]) was 264 nM, the IC50 (HLA-B*44:03; [11]) was 172 nM and the Kd (HLA-B*45:01 [6]; [11]) was 6260 nM.

Sequence RENANQLVV has an IC50 (HLA-B*18:01 [5]; [12]) of 757 nM, an IC50 (HLA-B*40:01 [1]; [12]) of 174 nM and an IC50 (HLA-B*40:02 [2]; [12]) of 20 nM. It also gave an IC50 (HLA-B*44:02; [12]) of 638 nM, an IC50 (HLA-B*44:03; [12]) of 480 nM and an IC50 (HLA-B*45:01 [3]; [12]) of 37 nM.

In the case of RETVLEYLV, the IC50 (HLA-B*40:01 [1]; [10]) is reported as 412 nM, the IC50 (HLA-B*40:02 [2]; [10]) is reported as 36 nM and the IC50 (HLA-B*44:03; [10]) is reported as 4830 nM. It also gave an IC50 (HLA-B*45:01 [3]; [10]) of 205 nM.

In the case of SENERGYYI, the IC50 (HLA-B*18:01 [5]; [12]) is reported as 301 nM, the IC50 (HLA-B*40:01 [1]; [12]) is reported as 3730 nM and the IC50 (HLA-B*40:02 [2]; [12]) is reported as 227 nM. It also gave an IC50 (HLA-B*44:02; [12]) of 150 nM, an IC50 (HLA-B*44:03; [12]) of 91 nM and an IC50 (HLA-B*45:01 [3]; [12]) of 336 nM.

With TERQANFL the IC50 (HLA-B*18:01 [5]; [11]) was 304 nM, the IC50 (HLA-B*40:01 [1]; [11]) was 223 nM and the IC50 (HLA-B*40:02 [2]; [11]) was 23 nM. It also gave an IC50 (HLA-B*44:02; [11]) of 9050 nM, an IC50 (HLA-B*44:03; [11]) of 2210 nM and a Kd (HLA-B*45:01 [6]; [11]) of 9720 nM.

In the case of VELLSFLPSDF, the IC50 (HLA-B*18:01 [5]; [10]) is reported as 414 nM, the IC50 (HLA-B*40:02 [2]; [10]) is reported as 480 nM and the IC50 (HLA-B*44:02; [10]) is reported as 299 nM. It also gave an IC50 (HLA-B*44:03; [10]) of 412 nM, a Kd (HLA-B*40:01 [8]) of 5560 nM and a Kd (HLA-B*45:01 [6]; [10]) of 10400 nM.

For WEFVNTPPL, the IC50 (HLA-B*18:01 [5]; [11]) was 5.9 nM, the IC50 (HLA-B*40:01 [1]; [11]) was 2.5 nM and the IC50 (HLA-B*40:02 [2]; [11]) was 8.6 nM. The IC50 (HLA-B*44:02; [11]) was 72 nM, the IC50 (HLA-B*44:03; [11]) was 378 nM and the Kd (HLA-B*45:01 [6]; [11]) was 5210 nM.
